{"source": "paper PMC8776337", "about": "“Peptides Derived from Vascular Endothelial Growth Factor B Show Potent Binding to Neuropilin‐1” (Chembiochem, 2021)", "molecules": {"B1": {"name": "b1 domain of neuropilin‐1 (NRP1‐b1) (domain or fragment, human)", "chain": "FKCMEALGMESGEIHSDQITASSQYSTNWSAERSRLNYPENGWTPGEDSYREWIQVDLGLLRFVTAVGTQGAISKETKKKYYVKTYKIDVSSNGEDWITIKEGNKPVLFQGNTNPTDVVVAVFPKPLITRFVRIKPATWETGISMRFEVYGCKIT", "notes": "neuropilin-1, human, b1 domain; also called NRP1‐b1 domain; NRP1 b1 domain; source: E. coli Rosetta (DE3), purified (HisTrap, TEV cleavage, Superdex 75, SP FF ion exchange)"}, "B2": {"name": "MGC0124 (peptide)", "chain": "SCKNTDSRCKARQLELNERTCRCDKPRR", "modifications": "disulfide (positions not given here); not fully specified (N-terminus); also: cyclised by disulphide, Cys pairing not given here"}, "B3": {"name": "VEGF‐B167: Vascular endothelial growth factor B isoform 167, immobilised on the sensor chip (protein)", "chain": "PVSQPDAPGHQRKVVSWIDVYTRATCQPREVVVPLTVELMGTVAKQLVPSCVTVQRCGGCCPDDGLECVPTGQHQVRMQILMIRYPSSQLGEMSLEEHSQCECRPKKKDSAVKPDSPRPLCPRCTQHHQRPDPRTCRCRCRRRSFLRCQGRGLELNPDTCRCRKLRR"}}, "key": {"[1]": {"molecular_target": "T1, NRP1‐b1 binding to VEGF‐B167 (Homo sapiens, UniProt O14786)", "T1 construct": "poly-histidine (TEV-cleavable) (cleaved yes); made in house; host or cells: E. coli Rosetta (DE3) (NRP1-b1 only)", "T1 sequence (O14786 275-424 limits assumed)": "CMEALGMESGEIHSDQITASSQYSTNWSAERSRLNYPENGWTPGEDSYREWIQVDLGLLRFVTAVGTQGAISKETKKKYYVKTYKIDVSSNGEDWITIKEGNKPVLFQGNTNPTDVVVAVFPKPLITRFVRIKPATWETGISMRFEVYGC", "test": "SPR EG01377 competition assay, NRP1-b1 binding to immobilised VEGF-B167", "conditions": "NRP1-b1 5 μM, EG01377 6.25 to 50 μM, 60 s", "source_text": "(§1) We have previously reported the use of SPR to characterise the interaction between the immobilized b1 domain of NRP1 (NRP1‐b1) and VEGF‐A‐derived peptides,[23] arginine analogues,[26] and small molecules.[27, 28] When we attempted to measure the binding affinity of VEGF‐B isoforms to immobilized NRP1‐b1 we observed non‐saturable binding responses. Increasing concentrations of VEGF‐B over immobilised NRP1 led to response units (RU) higher than the theoretical maximum for a 1 : 1 interaction. The shape of the curves remained consistent at low and high concentration and was not typical of sample precipitation (fuzzy heterogeneous curves, commonly observed only at higher concentrations). […] We consider that the observations are consistent with oligomerization as a form of non‐specific binding. […] To circumvent this, we immobilized VEGF‐B167 and VEGF‐A165 (Figure 2) onto a sensor chip and measured the binding of NRP1‐b1 domain in solution. Using this method, the binding affinity of NRP1‐b1 to immobilized VEGF‐A165 was 100‐fold lower than previously observed when the interaction was measured in reverse experimental configuration.[23] […] We then sought to investigate if binding could be blocked by a known inhibitor of the VEGF‐A interaction with NRP1‐b1. […]"}, "[2]": {"molecular_target": "T2, NRP1‐b1 binding to VEGF‐A165 (Homo sapiens, UniProt O14786)", "T2 construct": "poly-histidine (TEV-cleavable) (cleaved yes); made in house; host or cells: E. coli Rosetta (DE3) (NRP1-b1 only)", "T2 sequence (O14786 275-424 limits assumed)": "T1 sequence (O14786 275-424 limits assumed)", "test": "SPR EG01377 competition assay, NRP1-b1 binding to immobilised VEGF-A165", "conditions": "NRP1-b1 5 μM, EG01377 1.25 to 10 μM, 60 s", "source_text": "as §1"}, "VEGFs": {"test_system": "VEGFs", "test": "SPR direct binding of EG01377 to immobilised VEGFs", "set-up": "species or system human", "conditions": "immobilised VEGF-A165 and VEGF-B167", "source_text": "as §1"}, "NRP1‐b1": {"molecular_target": "T3, NRP1‐b1 (Homo sapiens, UniProt O14786)", "T3 construct": "the immobilized b1 domain of NRP1 (NRP1‐b1); poly-histidine (TEV-cleavable) (cleaved yes); made in house; host or cells: E. coli Rosetta (DE3)", "T3 sequence (O14786 275-424 limits assumed)": "T1 sequence (O14786 275-424 limits assumed)", "test": "SPR binding of NRP1-b1 in solution to immobilised VEGFs", "conditions": "VEGF immobilised on CM5 chip, NRP1-b1 0.25 to 64 μM in PBS, 60 s, steady-state, 1:1 interaction, 25 °C, read-out: KD of NRP1‐b1 for immobilized VEGF", "source_text": "We have previously reported the use of SPR to characterise the interaction between the immobilized b1 domain of NRP1 (NRP1‐b1) and VEGF‐A‐derived peptides,[23] arginine analogues,[26] and small molecules.[27, 28] When we attempted to measure the binding affinity of VEGF‐B isoforms to immobilized NRP1‐b1 we observed non‐saturable binding responses. Increasing concentrations of VEGF‐B over immobilised NRP1 led to response units (RU) higher than the theoretical maximum for a 1 : 1 interaction. The shape of the curves remained consistent at low and high concentration and was not typical of sample precipitation (fuzzy heterogeneous curves, commonly observed only at higher concentrations). […] We consider that the observations are consistent with oligomerization as a form of non‐specific binding. […] To circumvent this, we immobilized VEGF‐B167 and VEGF‐A165 (Figure 2) onto a sensor chip and measured the binding of NRP1‐b1 domain in solution. Using this method, the binding affinity of NRP1‐b1 to immobilized VEGF‐A165 was 100‐fold lower than previously observed when the interaction was measured in reverse experimental configuration.[23] […]\nBinding of NRP1‐b1 to VEGFs: Dose responses were obtained by injecting NRP1‐b1 in PBS over the immobilized VEGFs for 60 s, using two‐fold dilutions from 64 to 0.25 μM. Steady‐state binding affinities were calculated assuming a 1 : 1 interaction."}, "VEGF‐B167": {"molecular_target": "T4, VEGF‐B167 (human, UniProt P49765-2 22-188)", "T4 construct": "vascular endothelial growth factor B, isoform VEGF-B167, human", "T4 sequence (looked up)": "B3 chain", "test": "SPR; VEGF-A165 and VEGF-B167 immobilised on a CM5 chip by random amine coupling; NRP1-b1 in PBS injected for 60 s, two-fold dilutions from 64 to 0.25 μM; 25 °C; steady-state affinity assuming a 1:1 interaction", "conditions": "both partners purified"}, "VEGF‐A165": {"molecular_target": "T5, VEGF‐A165 (human, UniProt P15692-4 1-191)", "T5 construct": "vascular endothelial growth factor A, isoform VEGF-A165, human", "T5 sequence (P15692 other isoform, or with tags, fused parts or gaps)": "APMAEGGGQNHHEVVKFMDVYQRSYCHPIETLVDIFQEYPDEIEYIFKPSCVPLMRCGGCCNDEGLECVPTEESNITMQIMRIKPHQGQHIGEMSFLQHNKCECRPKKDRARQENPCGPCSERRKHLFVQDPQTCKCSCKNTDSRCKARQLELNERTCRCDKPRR", "test": "SPR; VEGF-A165 and VEGF-B167 immobilised on a CM5 chip by random amine coupling; NRP1-b1 in PBS injected for 60 s, two-fold dilutions from 64 to 0.25 μM; 25 °C; steady-state affinity assuming a 1:1 interaction", "conditions": "both partners purified"}, "[3]": {"molecular_target": "B1", "test": "SPR; NRP1-b1 immobilised on a CM5 chip by random amine coupling; peptides injected for 60 s, 120 or 180 s dissociation; 25 °C; regeneration with 1 M NaCl; kinetic fit, 1:1 model (MGC0122, MGC0123, MGC0124) or two-state model (MGC0171, MGC0172, MGC0173, MGC0174)", "conditions": "both partners purified"}}, "note": "No end group written: not given here."}
{"molecule": "NCc1ccc(-c2cc3c(c(S(=O)(=O)Nc4ccsc4C(=O)N[C@@H](CCCN=C(N)N)C(=O)O)c2)OCC3)cc1", "note": "[EG01377]", "values": [{"measurement": "Effect on binding of NRP1‐b1 to immobilised VEGF‐B167", "setting": "[1]", "value": "reduced the binding"}, {"measurement": "Effect on binding of NRP1‐b1 to immobilised VEGF‐A165", "setting": "[2]", "value": "reduced the binding"}, {"measurement": "Binding to VEGFs", "setting": "VEGFs", "value": "No binding was observed"}]}
{"molecule": "VEGF‐A165: Vascular endothelial growth factor A isoform 165, immobilised on the sensor chip", "values": [{"measurement": "Kd", "setting": "NRP1‐b1", "value": 9, "unit": "µM"}]}
{"molecule": "B1", "values": [{"measurement": "Kd", "setting": "VEGF‐B167", "value": 36, "unit": "µM"}, {"measurement": "Kd", "setting": "VEGF‐A165", "value": 9, "unit": "µM"}]}
{"molecule": "B2", "values": [{"measurement": "Kd", "setting": "[3]", "value": "3.33 ± 0.1", "unit": "µM"}]}
{"molecule": "B3", "values": [{"measurement": "Kd", "setting": "NRP1‐b1", "value": 36, "unit": "µM"}]}
